Measured values as given in the supplement of paper PMC7877785.
± gives the uncertainty stated by the source.

Test: self-splicing fitness, log relative to wild type (ln ratio); higher = more splicing; Tetrahymena group I intron in knt gene, E. coli kanamycin selection, DiMSum; sequences stand for … in CUCUCU…GGAGGGAAAAGUUAUCAGGCAUGCACCUGGUAGCUAGUCUUUAAACCAAUAGAUUGCAUCGGUUUAAAAGGCAAGACCGUCAAAUUGCGGGAAAGGGGUCAACAGCCGUUCAGUACCAAGUCUCAGGGGAAACUUUGAGAUGGCCUUGCAAAGGGUAUGGUAAUAAGCUGACGGACAUGGUCCUAACCACGCAGCCAAGUCCUAAGUCAACAGAUCUUCUGUUGAUAUGGAUGCAGUUCACAGACUAAAUGUCGGUCGGGGAAGAUGUAUUCUUCUCAUAAGAUAUAGUCGGACCUCUCCUUAAUGGGAGCUAGCGGAUGAAGUGAUGCAACACUGGAGCCGCUGGGAACUAAUUUGUAUGCGAAAGUAUAUUGAUUAGUUUUGGAGUACUCGUGGUCG
How it was run: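 Fitness was computed with DiMSum as the error-weighted combination of replicate fold changes, kanamycin versus none, each normalised to wild type. The library randomised all eight intron nucleotides of the P1ex region, with the intron placed in the knt kanamycin-resistance gene on pET-22b(+) in E. coli BL21(DE3). Six replicate transformations were grown overnight at 37°C or 30°C on LB agar with or without 25 μg/mL kanamycin, plus 100 μg/mL carbenicillin, 50 μM IPTG and 0.2% rhamnose. Pooled colonies were amplicon-sequenced on an Illumina HiSeq 2500.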

## AGACAGCAAUAUUACGACAC
30 °C
  self-splicing fitness (ln): -1 ± 0.11
37 °C
  self-splicing fitness (ln): -0.662 ± 0.14

## AGACAGCAAUAUUACGACCA
30 °C
  self-splicing fitness (ln): -0.623 ± 0.11
37 °C
  self-splicing fitness (ln): -0.823 ± 0.13

## AGACAGCAAUAUUACGAGAG
30 °C
  self-splicing fitness (ln): -4.6 ± 0.34
37 °C
  self-splicing fitness (ln): -2.12 ± 0.17

## AGACAGCAAUAUUACGCCAA
30 °C
  self-splicing fitness (ln): -2.35 ± 0.15
37 °C
  self-splicing fitness (ln): -1.1 ± 0.12

## AGACAGCAAUAUUACGCGAU
30 °C
  self-splicing fitness (ln): -2.68 ± 0.14
37 °C
  self-splicing fitness (ln): -1.29 ± 0.15

## AGACAGCAAUAUUACGGAAC
37 °C
  self-splicing fitness (ln): -1.4 ± 0.22

## AGACAGCAAUAUUACGGACG
30 °C
  self-splicing fitness (ln): -1.14 ± 0.066
37 °C
  self-splicing fitness (ln): -0.531 ± 0.071

## AGACAGCAAUAUUACGGACU
30 °C
  self-splicing fitness (ln): -0.583 ± 0.068
37 °C
  self-splicing fitness (ln): -0.3 ± 0.087

## AGACAGCAAUAUUACGGCAC
30 °C
  self-splicing fitness (ln): -0.629 ± 0.086
37 °C
  self-splicing fitness (ln): -1.09 ± 0.094

## AGACAGCAAUAUUACGGCGC
30 °C
  self-splicing fitness (ln): -0.893 ± 0.092
37 °C
  self-splicing fitness (ln): -0.134 ± 0.12

## AGACAGCAAUAUUACGGCUG
30 °C
  self-splicing fitness (ln): -2.93 ± 0.14
37 °C
  self-splicing fitness (ln): -2.34 ± 0.19

## AGACAGCAAUAUUACGGCUU
30 °C
  self-splicing fitness (ln): -0.243 ± 0.094
37 °C
  self-splicing fitness (ln): 0.564 ± 0.14

## AGACAGCAAUAUUACGGUCG
30 °C
  self-splicing fitness (ln): -1.02 ± 0.093
37 °C
  self-splicing fitness (ln): -0.102 ± 0.12

## AGACAGCAAUAUUACGUAAA
30 °C
  self-splicing fitness (ln): -2.15 ± 0.072
37 °C
  self-splicing fitness (ln): -1.05 ± 0.08

## AGACAGCAAUAUUACGUGAG
30 °C
  self-splicing fitness (ln): -1.67 ± 0.056
37 °C
  self-splicing fitness (ln): -0.569 ± 0.087

## AGACAGCAAUAUUACGUGUA
30 °C
  self-splicing fitness (ln): -1.89 ± 0.078
37 °C
  self-splicing fitness (ln): -1.61 ± 0.069

## AGAGAGCAAUAUUACGAACA
30 °C
  self-splicing fitness (ln): -2.8 ± 0.36
37 °C
  self-splicing fitness (ln): -2.84 ± 0.31

## AGAGAGCAAUAUUACGACAU
30 °C
  self-splicing fitness (ln): -2.476 ± 0.019
37 °C
  self-splicing fitness (ln): -1.94 ± 0.037

## AGAGAGCAAUAUUACGACCG
30 °C
  self-splicing fitness (ln): -2.92 ± 0.4

## AGAGAGCAAUAUUACGACGA
37 °C
  self-splicing fitness (ln): -1.61 ± 0.29

## AGAGAGCAAUAUUACGACGU
30 °C
  self-splicing fitness (ln): -1.84 ± 0.15
37 °C
  self-splicing fitness (ln): -0.382 ± 0.15

## AGAGAGCAAUAUUACGAUGG
30 °C
  self-splicing fitness (ln): -4.56 ± 0.36
37 °C
  self-splicing fitness (ln): -1.17 ± 0.29

## AGAGAGCAAUAUUACGCCGA
37 °C
  self-splicing fitness (ln): -1.55 ± 0.43

## AGAGAGCAAUAUUACGCUGC
30 °C
  self-splicing fitness (ln): -2.3 ± 0.23
37 °C
  self-splicing fitness (ln): -2.63 ± 0.34

## AGAGAGCAAUAUUACGGCAG
30 °C
  self-splicing fitness (ln): -1.51 ± 0.24
37 °C
  self-splicing fitness (ln): -1.42 ± 0.43

## AGAGAGCAAUAUUACGUAGU
30 °C
  self-splicing fitness (ln): -3.49 ± 0.3
37 °C
  self-splicing fitness (ln): -2.47 ± 0.26

## AGAGAGCAAUAUUACGUCCG
37 °C
  self-splicing fitness (ln): -1.63 ± 0.33

## AGAGAGCAAUAUUACGUGUC
37 °C
  self-splicing fitness (ln): -2.33 ± 0.37

## AGAGAGCAAUAUUACGUUCG
30 °C
  self-splicing fitness (ln): -2.2 ± 0.16
37 °C
  self-splicing fitness (ln): -2.07 ± 0.23

## AGAUAGCAAUAUUACGAAAA
30 °C
  self-splicing fitness (ln): -2.71 ± 0.24
37 °C
  self-splicing fitness (ln): -2.12 ± 0.22

## AGAUAGCAAUAUUACGACAG
30 °C
  self-splicing fitness (ln): -2.26 ± 0.15
37 °C
  self-splicing fitness (ln): -0.465 ± 0.18

## AGAUAGCAAUAUUACGACCU
30 °C
  self-splicing fitness (ln): 0.592 ± 0.11
37 °C
  self-splicing fitness (ln): 0.469 ± 0.15

## AGAUAGCAAUAUUACGAUUC
30 °C
  self-splicing fitness (ln): -1.7 ± 0.12
37 °C
  self-splicing fitness (ln): -0.442 ± 0.16

## AGAUAGCAAUAUUACGCAAA
30 °C
  self-splicing fitness (ln): -2.81 ± 0.23
37 °C
  self-splicing fitness (ln): -1.75 ± 0.24

## AGAUAGCAAUAUUACGCAUC
30 °C
  self-splicing fitness (ln): -1.84 ± 0.3
37 °C
  self-splicing fitness (ln): -1.91 ± 0.36

## AGAUAGCAAUAUUACGCCCA
30 °C
  self-splicing fitness (ln): -1.03 ± 0.21
37 °C
  self-splicing fitness (ln): -0.502 ± 0.23

## AGAUAGCAAUAUUACGCCUU
30 °C
  self-splicing fitness (ln): -0.881 ± 0.09
37 °C
  self-splicing fitness (ln): -0.255 ± 0.11

## AGAUAGCAAUAUUACGCGCG
30 °C
  self-splicing fitness (ln): 0.343 ± 0.18
37 °C
  self-splicing fitness (ln): -0.618 ± 0.2

## AGAUAGCAAUAUUACGCGGU
30 °C
  self-splicing fitness (ln): -2.93 ± 0.17
37 °C
  self-splicing fitness (ln): -2.28 ± 0.15

## AGAUAGCAAUAUUACGGAAU
30 °C
  self-splicing fitness (ln): -2.07 ± 0.15
37 °C
  self-splicing fitness (ln): -0.731 ± 0.14

## AGAUAGCAAUAUUACGGAUC
30 °C
  self-splicing fitness (ln): -1.92 ± 0.21
37 °C
  self-splicing fitness (ln): -0.641 ± 0.2

## AGAUAGCAAUAUUACGGCCU
30 °C
  self-splicing fitness (ln): -0.604 ± 0.11
37 °C
  self-splicing fitness (ln): 0.606 ± 0.14

## AGAUAGCAAUAUUACGGCGC
30 °C
  self-splicing fitness (ln): -1.32 ± 0.14
37 °C
  self-splicing fitness (ln): -0.0937 ± 0.15

## AGAUAGCAAUAUUACGUAUA
30 °C
  self-splicing fitness (ln): -1.91 ± 0.19
37 °C
  self-splicing fitness (ln): -2.27 ± 0.28

## AGAUAGCAAUAUUACGUCUA
30 °C
  self-splicing fitness (ln): -0.934 ± 0.24
37 °C
  self-splicing fitness (ln): -0.474 ± 0.2

## AGAUAGCAAUAUUACGUGCA
30 °C
  self-splicing fitness (ln): -0.725 ± 0.13
37 °C
  self-splicing fitness (ln): -0.616 ± 0.15

## AGAUAGCAAUAUUACGUGCC
30 °C
  self-splicing fitness (ln): -0.685 ± 0.2
37 °C
  self-splicing fitness (ln): -0.528 ± 0.22

## AGAUAGCAAUAUUACGUGUU
30 °C
  self-splicing fitness (ln): -2.97 ± 0.13
37 °C
  self-splicing fitness (ln): -1.1 ± 0.11

## AGCAAGCAAUAUUACGAAGA
30 °C
  self-splicing fitness (ln): -3.3 ± 0.31
37 °C
  self-splicing fitness (ln): -1.74 ± 0.15

## AGCAAGCAAUAUUACGAAUU
30 °C
  self-splicing fitness (ln): -2.55 ± 0.08
37 °C
  self-splicing fitness (ln): -1.68 ± 0.09
